Reference: patent publication US20150368652A1

Target: Kcna2 protein (Kv1.2), endogenous in rat dorsal root ganglion neurons (rat) (UniProt P63142)
Test: cell-based or functional assay

Sequence of UniProt P63142 (P63142 whole entry): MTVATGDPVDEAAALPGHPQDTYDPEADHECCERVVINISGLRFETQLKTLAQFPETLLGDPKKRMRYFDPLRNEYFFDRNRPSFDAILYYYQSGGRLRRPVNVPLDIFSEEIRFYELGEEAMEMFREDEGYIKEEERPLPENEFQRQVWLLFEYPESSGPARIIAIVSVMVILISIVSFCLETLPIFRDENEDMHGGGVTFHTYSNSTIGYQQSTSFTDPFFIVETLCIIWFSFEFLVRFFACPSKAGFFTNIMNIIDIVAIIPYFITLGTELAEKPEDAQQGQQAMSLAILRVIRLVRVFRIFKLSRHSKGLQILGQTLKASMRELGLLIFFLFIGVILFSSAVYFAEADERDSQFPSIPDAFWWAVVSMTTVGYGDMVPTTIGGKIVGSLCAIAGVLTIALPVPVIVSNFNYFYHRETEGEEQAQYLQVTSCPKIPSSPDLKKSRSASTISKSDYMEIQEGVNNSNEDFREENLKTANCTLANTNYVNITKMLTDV

maurotoxin (from UniProt P80719 1-34) (peptide)
total voltage-gated potassium current retained at +50 mV after 100 nM MTX, large DRG neurons, Kcna2 antisense-treated group (Kcna2 downregulated): 92.3 % of current | total voltage-gated potassium current retained at +50 mV after 100 nM MTX, large DRG neurons, control group (whole-cell voltage clamp): 81.7 % of current | total voltage-gated potassium current retained at +50 mV after 100 nM MTX, medium DRG neurons, Kcna2 antisense-treated group (Kcna2 downregulated): 94.9 % of current | total voltage-gated potassium current retained at +50 mV after 100 nM MTX, medium DRG neurons, control group (whole-cell voltage clamp): 85.1 % of current
